Legend:
[1] = target: 人TIM-3 (recombinant antigen of the ELISA of Example 3: TIM-3-hFc captured on goat-anti-hFc, or Tim-3-his coated directly) (human) (UniProt Q8TDQ0); experiment: ELISA of hybridoma supernatant on human TIM-3 (Example 3)
[2] = target: 狨猴(marmoset) Tim-3蛋白 (狨猴(marmoset)) (UniProt F7I881); experiment: ELISA, against ABTIM3 as reference

| ELISA 数值(OD450) [1] [OD450] | fold stronger than the positive control molecule [2] [fold] | Binder |
| --- | --- | --- |
| 1.14 |  | mab15 (鼠源抗体) (antibody, V domains shown) VH: EVKLVESEGGLVQPGSSMKLSCTASGFTFSDYYMTWVRQVPEKGLEWVASINYDGRNTYYLDSLKSRFIISRDNAKNILYLQMSSLKSEDTATYYCARGYYYYGSSPNYFDYWGQGTTLTVSS VL: DIQMTQSPASLSASVGETVTITCRASENIYSYLTWYQQKQGKSPQLLVYNAKTLAEGVPSRFSGSGSGTQFSLRINSLQPEDFGNYYCQQHYGTPLTFGAGTKLELK |
|  | > 4 | 人源化ab32抗体 (全人源化抗体) (antibody, human IgG4 S228P, kappa, V domains shown) VH: EVQLVESGGGLVKPGGSLRLSCAASGFTFSDYYMTWVRQAPGKGLEWVSSINYDGRNTYYLDSLKSRFTISRDNAKNSLYLQMNSLRAEDTAVYYCARGYYYYGSSPNYFDYWGQGTLVTVSS VL: DIQMTQSPSSLSASVGDRVTITCRASENIYSYLTWYQQKPGKAPKLLIYNAKTLAEGVPSRFSGSGSGTDFTLTISSLQPEDFATYYCQQHYGTPLTFGQGTKLEIKR |

From CN110272489A
